Experimental data as given in patent publication US20200317768A1 (published 2020).

Assays:
Assay in all cases: SPR (Biacore); KD of SG1 divided by KD of the variant for this FcgR;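 note: relative to parent M103205H795-SG1 carrying the SG1 human heavy chain constant region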
[1] = target: T1, human FcγRIIaR extracellular domain with C-terminal His-tag (human, UniProt P12318 34-217)
T1 construct: Expressed in FreeStyle 293 cells and purified; also called human FcγRIIa (type R); FcgRIIaR; not shown: C-terminal His-tag
T1 chain: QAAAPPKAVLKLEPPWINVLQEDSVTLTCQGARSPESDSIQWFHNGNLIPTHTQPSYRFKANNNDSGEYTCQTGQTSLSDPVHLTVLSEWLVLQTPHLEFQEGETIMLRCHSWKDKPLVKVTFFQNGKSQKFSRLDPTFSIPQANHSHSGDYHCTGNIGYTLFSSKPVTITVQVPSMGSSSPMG
Experimental: (§1) The kinetic analysis of interactions between these antibodies and FcγR was carried out using BIACORE® T200 or BIACORE® 4000 (GE Healthcare). HBS-EP+ (GE Healthcare) was used as the running buffer, and the measurement temperature was set to 25° C. A chip produced by immobilizing Protein A. Protein A/G or mouse anti-human IgG kappa light chain (BD Biosciences) onto a Series S Sensor Chip CM4 or CM5 (GE Healthcare) by the amine-coupling method was used. […] After the measurement, the antibody captured on the chip was washed off by allowing reaction with 10 mM glycine-HCl, pH1.5 and 25 mM NaOH so that the chip was regenerated and used repeatedly. The sensorgrams obtained as measurement results were analyzed by the 1:1 Langmuir binding model using the BIACORE® Evaluation Software to calculate the binding rate constant ka (L/mol/s) and dissociation rate constant kd (l/s), and the dissociation constant KD (mol/L) was calculated from these values. […] Regarding such interactions, KD values were calculated using the following 1:1 binding model described in BIACORE® T100 Software Handbook BR1006-48 Edition AE.
(§2) The resultant variants were expressed using M103202L889-SK1 as light chain and their affinity to human and cynoFcγRs were evaluated (Table 20).

[2] = target: T2, human FcγRIIaH extracellular domain with C-terminal His-tag (human, UniProt P12318 34-217)
T2 construct: Expressed in FreeStyle 293 cells and purified; also called human FcγRIIa (type H); FcgRIIaH; not shown: C-terminal His-tag
T2 sequence: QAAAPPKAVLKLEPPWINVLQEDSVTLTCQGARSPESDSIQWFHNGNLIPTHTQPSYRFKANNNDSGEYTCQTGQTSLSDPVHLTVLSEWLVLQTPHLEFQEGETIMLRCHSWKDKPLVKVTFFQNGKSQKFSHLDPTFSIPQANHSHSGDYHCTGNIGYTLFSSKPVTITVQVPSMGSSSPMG
Experimental: as §1, §2

[3] = target: T3, cynomolgus monkey FcγRIIa1 extracellular domain with C-terminal His-tag (cynomolgus monkey)
T3 construct: Expressed in FreeStyle 293 cells and purified; also called cyno FcγRIIa1; cynoFcgRIIa1; not shown: C-terminal His-tag
T3 chain: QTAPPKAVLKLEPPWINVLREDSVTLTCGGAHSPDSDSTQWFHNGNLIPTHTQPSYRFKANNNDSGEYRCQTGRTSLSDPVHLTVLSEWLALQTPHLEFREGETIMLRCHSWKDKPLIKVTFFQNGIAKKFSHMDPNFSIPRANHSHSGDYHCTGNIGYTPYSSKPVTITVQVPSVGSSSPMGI
Experimental: as §1, §2

[4] = target: T4, human FcγRIIb extracellular domain with C-terminal His-tag (human, UniProt P31994 43-217)
T4 construct: Expressed in FreeStyle 293 cells and purified; also called humanFcgRIIb; not shown: C-terminal His-tag
T4 sequence: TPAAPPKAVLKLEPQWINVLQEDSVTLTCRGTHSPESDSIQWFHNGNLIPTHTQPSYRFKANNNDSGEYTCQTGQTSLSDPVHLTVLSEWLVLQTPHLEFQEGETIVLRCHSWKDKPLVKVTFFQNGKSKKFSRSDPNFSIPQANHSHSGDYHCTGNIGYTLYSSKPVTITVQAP
Experimental: as §1, §2

| Binder | KD fold (SG1 = 1) [1] | KD fold (SG1 = 1) [2] | KD fold (SG1 = 1) [3] | KD fold (SG1 = 1) [4] |
| --- | --- | --- | --- | --- |
| MS_M103205H795-SG1/M103202L889-SK1 (antibody, human IgG1, kappa, Anti-latent myostatin IgG; also called MS1032LO06-SG1) heavy: not shown light: DIVMTQSPATLSLSPGERATLSCTSSQSVYHANWLSWFQQKPGQPPKLLIYWASTLAYGVPSRFSGSGSGTDFTLTISSLQPEDAATYYCAGGYGGGRYAFGQGTKVEIKRTVAAPSVFIFPPSDEQLKSGTASVVCLLNNFYPREAKVQWKVDNALQSGNSQESVTEQDSKDSTYSLSSTLTLSKADYEKHKVYACEVTHQGLSSPVTKSFNRGEC | 1 fold | 1 fold | 1 fold | 1 fold |
| M103205H795-MY052 / M103202L889-SK1 (antibody, human IgG1, kappa, Fc variant of M103205H795-SG1, expressed with M103202L889-SK1 as light chain; parent of the position 396 variants) heavy: QVTLKESGPVLVKPTETLTLTCTVSGIDLSHDDISWVRQAPGKGLEWVGIISYAGSTYYASWAKGRLTISKDTSKNQVVLTMTNMDPVDTATYYCARGVPAYSHGGDLWGQGTLVTVSSASTKGPSVFPLAPSSKSTSGGTAALGCLVKDYFPEPVTVSWNSGALTSGVHTFPAVLQSSGLYSLSSVVTVPSSSLGTQTYICNVNHKPSNTKVDKKVEPKSCDKTHTCPPCPAPELLNGPSVFLFPPKPKDTLMISRTPEVTCVVVDVSEEDPEVKFNWYVDGVEVHNAKTKPREEQYNSTYRVVSVLTVLHQDWLNGKEYKCKVSNKALPAPIEKTISKAKGQPREPQVYTLPPSREEMTKNQVSLTCLVKGFYPSDIAVEWESNGQPENNYKTTPMVLDSDGSFFLYSKLTVDKSRWQQGNVFSCSVMHEALHNHYTQKSLSLSP light: DIVMTQSPATLSLSPGERATLSCTSSQSVYHANWLSWFQQKPGQPPKLLIYWASTLAYGVPSRFSGSGSGTDFTLTISSLQPEDAATYYCAGGYGGGRYAFGQGTKVEIKRTVAAPSVFIFPPSDEQLKSGTASVVCLLNNFYPREAKVQWKVDNALQSGNSQESVTEQDSKDSTYSLSSTLTLSKADYEKHKVYACEVTHQGLSSPVTKSFNRGEC | 0.8 fold | 0.8 fold | 2.3 fold | 6.4 fold |
| M103205H795-MY168 / M103202L889-SK1 (antibody, human IgG1, kappa, Position 396 variant derived from MY052, expressed with M103202L889-SK1 as light chain) heavy: QVTLKESGPVLVKPTETLTLTCTVSGIDLSHDDISWVRQAPGKGLEWVGIISYAGSTYYASWAKGRLTISKDTSKNQVVLTMTNMDPVDTATYYCARGVPAYSHGGDLWGQGTLVTVSSASTKGPSVFPLAPSSKSTSGGTAALGCLVKDYFPEPVTVSWNSGALTSGVHTFPAVLQSSGLYSLSSVVTVPSSSLGTQTYICNVNHKPSNTKVDKKVEPKSCDKTHTCPPCPAPELLNGPSVFLFPPKPKDTLMISRTPEVTCVVVDVSEEDPEVKFNWYVDGVEVHNAKTKPREEQYNSTYRVVSVLTVLHQDWLNGKEYKCKVSNKALPAPIEKTISKAKGQPREPQVYTLPPSREEMTKNQVSLTCLVKGFYPSDIAVEWESNGQPENNYKTTPAVLDSDGSFFLYSKLTVDKSRWQQGNVFSCSVMHEALHNHYTQKSLSLSP light: DIVMTQSPATLSLSPGERATLSCTSSQSVYHANWLSWFQQKPGQPPKLLIYWASTLAYGVPSRFSGSGSGTDFTLTISSLQPEDAATYYCAGGYGGGRYAFGQGTKVEIKRTVAAPSVFIFPPSDEQLKSGTASVVCLLNNFYPREAKVQWKVDNALQSGNSQESVTEQDSKDSTYSLSSTLTLSKADYEKHKVYACEVTHQGLSSPVTKSFNRGEC | 0.4 fold | 0.4 fold | 1.5 fold | 2.7 fold |
| M103205H795-MY169 / M103202L889-SK1 (antibody, human IgG1, kappa, Position 396 variant derived from MY052, expressed with M103202L889-SK1 as light chain) heavy: QVTLKESGPVLVKPTETLTLTCTVSGIDLSHDDISWVRQAPGKGLEWVGIISYAGSTYYASWAKGRLTISKDTSKNQVVLTMTNMDPVDTATYYCARGVPAYSHGGDLWGQGTLVTVSSASTKGPSVFPLAPSSKSTSGGTAALGCLVKDYFPEPVTVSWNSGALTSGVHTFPAVLQSSGLYSLSSVVTVPSSSLGTQTYICNVNHKPSNTKVDKKVEPKSCDKTHTCPPCPAPELLNGPSVFLFPPKPKDTLMISRTPEVTCVVVDVSEEDPEVKFNWYVDGVEVHNAKTKPREEQYNSTYRVVSVLTVLHQDWLNGKEYKCKVSNKALPAPIEKTISKAKGQPREPQVYTLPPSREEMTKNQVSLTCLVKGFYPSDIAVEWESNGQPENNYKTTPDVLDSDGSFFLYSKLTVDKSRWQQGNVFSCSVMHEALHNHYTQKSLSLSP light: DIVMTQSPATLSLSPGERATLSCTSSQSVYHANWLSWFQQKPGQPPKLLIYWASTLAYGVPSRFSGSGSGTDFTLTISSLQPEDAATYYCAGGYGGGRYAFGQGTKVEIKRTVAAPSVFIFPPSDEQLKSGTASVVCLLNNFYPREAKVQWKVDNALQSGNSQESVTEQDSKDSTYSLSSTLTLSKADYEKHKVYACEVTHQGLSSPVTKSFNRGEC | 0.4 fold | 0.6 fold | 1.4 fold | 3.5 fold |
| M103205H795-MY170 / M103202L889-SK1 (antibody, human IgG1, kappa, Position 396 variant derived from MY052, expressed with M103202L889-SK1 as light chain) heavy: QVTLKESGPVLVKPTETLTLTCTVSGIDLSHDDISWVRQAPGKGLEWVGIISYAGSTYYASWAKGRLTISKDTSKNQVVLTMTNMDPVDTATYYCARGVPAYSHGGDLWGQGTLVTVSSASTKGPSVFPLAPSSKSTSGGTAALGCLVKDYFPEPVTVSWNSGALTSGVHTFPAVLQSSGLYSLSSVVTVPSSSLGTQTYICNVNHKPSNTKVDKKVEPKSCDKTHTCPPCPAPELLNGPSVFLFPPKPKDTLMISRTPEVTCVVVDVSEEDPEVKFNWYVDGVEVHNAKTKPREEQYNSTYRVVSVLTVLHQDWLNGKEYKCKVSNKALPAPIEKTISKAKGQPREPQVYTLPPSREEMTKNQVSLTCLVKGFYPSDIAVEWESNGQPENNYKTTPEVLDSDGSFFLYSKLTVDKSRWQQGNVFSCSVMHEALHNHYTQKSLSLSP light: DIVMTQSPATLSLSPGERATLSCTSSQSVYHANWLSWFQQKPGQPPKLLIYWASTLAYGVPSRFSGSGSGTDFTLTISSLQPEDAATYYCAGGYGGGRYAFGQGTKVEIKRTVAAPSVFIFPPSDEQLKSGTASVVCLLNNFYPREAKVQWKVDNALQSGNSQESVTEQDSKDSTYSLSSTLTLSKADYEKHKVYACEVTHQGLSSPVTKSFNRGEC | 0.4 fold | 0.4 fold | 1.4 fold | 2.9 fold |
| M103205H795-MY171 / M103202L889-SK1 (antibody, human IgG1, kappa, Position 396 variant derived from MY052, expressed with M103202L889-SK1 as light chain) heavy: QVTLKESGPVLVKPTETLTLTCTVSGIDLSHDDISWVRQAPGKGLEWVGIISYAGSTYYASWAKGRLTISKDTSKNQVVLTMTNMDPVDTATYYCARGVPAYSHGGDLWGQGTLVTVSSASTKGPSVFPLAPSSKSTSGGTAALGCLVKDYFPEPVTVSWNSGALTSGVHTFPAVLQSSGLYSLSSVVTVPSSSLGTQTYICNVNHKPSNTKVDKKVEPKSCDKTHTCPPCPAPELLNGPSVFLFPPKPKDTLMISRTPEVTCVVVDVSEEDPEVKFNWYVDGVEVHNAKTKPREEQYNSTYRVVSVLTVLHQDWLNGKEYKCKVSNKALPAPIEKTISKAKGQPREPQVYTLPPSREEMTKNQVSLTCLVKGFYPSDIAVEWESNGQPENNYKTTPFVLDSDGSFFLYSKLTVDKSRWQQGNVFSCSVMHEALHNHYTQKSLSLSP light: DIVMTQSPATLSLSPGERATLSCTSSQSVYHANWLSWFQQKPGQPPKLLIYWASTLAYGVPSRFSGSGSGTDFTLTISSLQPEDAATYYCAGGYGGGRYAFGQGTKVEIKRTVAAPSVFIFPPSDEQLKSGTASVVCLLNNFYPREAKVQWKVDNALQSGNSQESVTEQDSKDSTYSLSSTLTLSKADYEKHKVYACEVTHQGLSSPVTKSFNRGEC | 0.5 fold | 0.5 fold | 1.4 fold | 3.8 fold |
